From patent publication US20220235132A1 (ANAPTYSBIO, published 2022)
Where “and” joins values, the source holds several entries; their conditions need not be identical. Identical values can stand only once.

What was measured:
[1] = biological target: T1, human PD-1 expressed on cells (human, UniProt Q15116 25-288); assay: cell-based or functional assay
[2] = biological target: T2, biotinylated cynomolgus monkey PD-1 extracellular domain monomer (cynomolgus monkey, UniProt B0LAJ3 25-170, Biotinylated; neither the site nor the method is stated, and the letters do not carry it.); assay: SPR (Biacore T200), biotinylated PD-1 ECD monomer captured on SA chip
T2 construct: Captured on a streptavidin sensor chip for SPR; also called Cynomolgus PD-1 (SPR)

[3] = biological target: T2, biotinylated cynomolgus monkey PD-1 …; assay: SPR screening (method taken from paragraph 169), N = 2
Description: KD measurements for screening by Surface Plasmon Resonance (SPR) were performed on a Biacore T200 (GE Healthcare Life Sciences, Pittsburgh, Pa.), and kinetic constants were fit globally using a 1:1 binding model. Biotinylated human or cynomolgus monkey PD-1 extracellular domain monomer was captured at a 1 nM concentration on a Biacore Sensor chip SA (GE Healthcare Life Sciences, Pittsburgh, Pa.), with a carboxymethylated dextran surface pre-immobilized with streptavidin. The captured antigen level was targeted to yield a low response to prevent avidity effects on the dissociation rate. Tm measurements were determined by fluorescence-based thermal shift and differential scanning calorimetry.

[4] = biological target: T3, cynomolgus monkey PD-1 expressed on cells (cynomolgus monkey, UniProt B0LAJ3 25-288); assay: flow cytometry, HEK 293 cells stably expressing cynomolgus monkey PD-1
T3 construct: also called cynomolgus PD-1; PD-1 on stably transfected HEK 293 cells
Description: HEK 293 cells were stably transfected to express either human PD-1 or cynomolgus monkey PD-1. Cells were harvested by Accutase™ treatment (Innovative Cell Technologies, San Diego, Calif.), the cells expressing cynomolgus monkey PD-1 were treated with the lipophilic fluorescent dye Vybrant® DiD (ThermoFisher Scientific, Carlsbad, Calif.), and then mixed with an equal number of unlabeled HEK 293 cells expressing human PD-1. Cells (2×10⁵ total per sample) were stained with the indicated concentrations of each antibody for 40 min at 4° C. with gentle shaking, centrifuged and washed once. Cells were fixed in 2% paraformaldehyde in phosphate-buffered saline (PBS) for 10 min at room temperature, washed, and antibodies detected with Phycoerythrin (PE)-conjugated goat anti-human kappa (Southern Biotechnology, Birmingham, Ala.) for 15 min at 4° C. with gentle shaking. Cells were washed, resuspended, and bound antibody fluorescence quantified on a BD FACSArray™ (BD Biosciences, San Jose, Calif.). Data were analyzed for median fluorescence intensity (MFI) using FlowJo® analysis software (FlowJo, LLC). ECso values were determined in GraphPad Prism 5.0 (GraphPad Software) using a log(agonist) vs. response—Variable slope (4 parameters) curve fit. The results are shown in FIGS. 1 and 2, and the ECso values are set forth in Table 2 (human) and Table 3 (cynomolgus monkey). […]

[5] = biological target: T4, cynomolgus PD-1 (as used in KinExA) (cynomolgus monkey); assay: KinExA (kinetic exclusion assay)
T4 construct: also called Cynomolgus PD-1 KD (KinExA)

[6] = biological target: T5, biotinylated human PD-1 extracellular domain monomer (human, UniProt Q15116 25-170, biotinylated (site not stated)); assay: SPR (Biacore T200), biotinylated PD-1 ECD monomer captured on SA chip
T5 construct: extracellular domain; Captured on a streptavidin sensor chip for SPR; also called Human PD-1 (SPR)

[7] = biological target: T1, human PD-1 expressed on cells; assay: flow cytometry, 2-day anti-CD3/anti-CD28 activated human CD4+ T cells
Description: Primary human peripheral blood CD4⁺ T cells were prepared using magnetic bead separation (CD4⁺ T Cell Isolation Kit, Miltenyi Biotec, Auburn, Calif.) of peripheral blood mononuclear cells (PBMCs) and activated for 48 hours with plastic-coated anti-CD3 and anti-CD28 in 6-well plates. Cells (1×10⁵ per sample) were washed and stained in V-bottom 96-well plates with the indicated concentrations of each antibody for 30 min at 4° C. with gentle shaking, centrifuged and washed once. Cells were fixed in 4% paraformaldehyde in PBS for 10 min at room temperature, washed, and antibodies detected with Alexa Fluor 647-conjugated F(ab′)2 goat anti-human IgG Fc (Jackson ImmunoResearch, West Grove, Pa.) for 10 min at 4° C. Cells were washed, resuspended, and bound antibody fluorescence quantified on a BD FACSArray™ (BD Biosciences, San Jose, Calif.). Data were analyzed for geometric mean fluorescence intensity (MFI) using FlowJo® analysis software (FlowJo, LLC). ECso values were determined in GraphPad Prism 7.02 (GraphPad Software) using a log(agonist) vs. response—Variable slope (4 parameters) curve fit.

T1 sequence (Q15116 25-288): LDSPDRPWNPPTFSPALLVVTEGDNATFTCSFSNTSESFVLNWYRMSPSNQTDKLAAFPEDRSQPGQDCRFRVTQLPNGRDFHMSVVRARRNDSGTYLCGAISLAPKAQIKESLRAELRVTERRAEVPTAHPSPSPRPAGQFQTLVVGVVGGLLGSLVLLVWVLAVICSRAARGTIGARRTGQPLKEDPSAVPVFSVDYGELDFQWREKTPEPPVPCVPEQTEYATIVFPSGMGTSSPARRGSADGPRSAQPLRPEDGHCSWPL
T2 sequence (B0LAJ3 entry or part of it limits assumed): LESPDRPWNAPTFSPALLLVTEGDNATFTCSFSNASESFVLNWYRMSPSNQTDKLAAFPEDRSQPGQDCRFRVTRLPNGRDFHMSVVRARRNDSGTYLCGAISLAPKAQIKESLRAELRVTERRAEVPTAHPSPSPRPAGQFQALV
T3 sequence (B0LAJ3 entry or part of it limits assumed): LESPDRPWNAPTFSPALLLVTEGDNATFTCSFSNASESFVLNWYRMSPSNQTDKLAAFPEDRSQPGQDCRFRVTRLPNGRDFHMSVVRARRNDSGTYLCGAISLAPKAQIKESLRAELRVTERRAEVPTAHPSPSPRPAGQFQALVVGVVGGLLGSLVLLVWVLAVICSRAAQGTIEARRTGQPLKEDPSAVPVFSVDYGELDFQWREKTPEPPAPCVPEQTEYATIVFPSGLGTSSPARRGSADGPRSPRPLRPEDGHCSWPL
T5 sequence (Q15116 25-170): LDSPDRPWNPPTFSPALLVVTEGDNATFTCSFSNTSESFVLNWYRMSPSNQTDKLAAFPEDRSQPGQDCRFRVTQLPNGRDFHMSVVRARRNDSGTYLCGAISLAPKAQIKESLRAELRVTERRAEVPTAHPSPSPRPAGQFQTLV

| Binder | Kd [2] | Kd [3] | EC50 [4] | Kd [5] | also measured |
| --- | --- | --- | --- | --- | --- |
| APE12890 (3.7C6 anti-PD-1 antibody, CHO-S) (antibody, human IgG1, kappa, V domains shown) VH: QVQLVQSGSELKKPGASVKVSCKASNYTFTDYSMHWVRQAPGQGLEWMGWINIETYYPTYADQFKGRFAFSLDTSVSTAYLQISSLKAEDTAVYYCARDYYGRFYYAMDYWGQGTTVTVSS VL: EIVLTQSPATLSLSPGERATLSCTASSSVSSSYFHWYQQKPGQAPRLLIYSTSNLASGIPARFSGSGSGTDFTLTISRLEPEDFAVYYCHQYHRSPLTFGGGTKVEIKR |  |  |  |  | median IC50 for IFN-γ inhibition, human whole blood tetanus toxoid recall assay [1]: 0.053 nM; median IC50 for IL-17A inhibition, human whole blood tetanus toxoid recall assay [1]: 0.097 nM |
| APE12095 (3.7C6 anti-PD-1 antibody, ExpiCHO-S transient) (antibody, V domains shown, detected with anti-human kappa; Only variable regions are tied to APE12095; suffixes are lots; also called APE12095.03; APE12095.04) VH: QVQLVQSGSELKKPGASVKVSCKASNYTFTDYSMHWVRQAPGQGLEWMGWINIETYYPTYADQFKGRFAFSLDTSVSTAYLQISSLKAEDTAVYYCARDYYGRFYYAMDYWGQGTTVTVSS VL: EIVLTQSPATLSLSPGERATLSCTASSSVSSSYFHWYQQKPGQAPRLLIYSTSNLASGIPARFSGSGSGTDFTLTISRLEPEDFAVYYCHQYHRSPLTFGGGTKVEIKR | 0.244 nM |  | 7.99 nM and 6.17 nM and 7.47 nM | 0.45 nM |  |
| 030-13263/030-13264 (CDR-grafted) (antibody, V domains shown, CDR-grafted forerunner of APE12537; APE12537 differs from it by A52aI and D62Q (Kabat) in the heavy chain) VH: QVQLVQSGSELKKPGASVKVSCKASNYTFTDYSMHWVRQAPGQGLEWMGWINAETYYPTYADDFKGRFAFSLDTSVSTAYLQISSLKAEDTAVYYCARDYYGRFYYAMDYWGQGTTVTVSS VL: EIVLTQSPATLSLSPGERATLSCTASSSVSSSYFHWYQQKPGQAPRLLIYSTSNLASGIPARFSGSGSGTDFTLTISRLEPEDFAVYYCHQYHRSPLTFGGGTKVEIKR |  | 1.02 nM |  |  |  |

Further lines, with some results ahead:

| Kd [2] | Kd [3] | EC50 [4] | Kd [5] | Binder | also measured |
| --- | --- | --- | --- | --- | --- |
| 0.445 nM | 0.64 nM |  |  | APE12537 (3.7C6 anti-PD-1 antibody, CHO-S sorted stable pool) (antibody, human IgG1, kappa, V domains shown, also called APE12537.01) VH: QVQLVQSGSELKKPGASVKVSCKASNYTFTDYSMHWVRQAPGQGLEWMGWINIETYYPTYADQFKGRFAFSLDTSVSTAYLQISSLKAEDTAVYYCARDYYGRFYYAMDYWGQGTTVTVSS VL: EIVLTQSPATLSLSPGERATLSCTASSSVSSSYFHWYQQKPGQAPRLLIYSTSNLASGIPARFSGSGSGTDFTLTISRLEPEDFAVYYCHQYHRSPLTFGGGTKVEIKR |  |
| 0.09 nM |  | 3.69 nM and 2.69 nM and 2.59 nM | 0.21 nM | APE12043 (437M5-112 anti-PD-1 antibody, ExpiCHO-S transient) (antibody, V domains shown, detected with anti-human kappa; Only variable regions are tied to APE12043; the suffixes .02 to .05 are lots; also called APE12043.02; APE12043.03) VH: QVQLVQSGAEVKKPGASVKVSCKASGYTFTSYSMHWVRQAPGQGLEWMGYINPSSGFTNYIQKFRDRVTMTADKSSSTAYMELSRLRSDDTAVYYCARDYYGRYYYVMDYWGQGTTVTVSS VL: DIQMTQSPSSLSASVGDRVTITCTASSSVSSSFLHWYQQKPGKAPKLLIYSTSDLASGVPSRFSGSGSGTDFTLTISSLQPEDFATYYCHQYHRSPLTFGGGTKVEIKR | Kd [6]: 0.031 nM; EC50 [7]: 2.99 nM and 3.06 nM |
| 0.217 nM |  |  |  | APE12538 (437M5-112 anti-PD-1 antibody, CHO-S sorted stable pool) (antibody, human IgG1, kappa, V domains shown, also called APE12538.01) VH: QVQLVQSGAEVKKPGASVKVSCKASGYTFTSYSMHWVRQAPGQGLEWMGYINPSSGFTNYIQKFRDRVTMTADKSSSTAYMELSRLRSDDTAVYYCARDYYGRYYYVMDYWGQGTTVTVSS VL: DIQMTQSPSSLSASVGDRVTITCTASSSVSSSFLHWYQQKPGKAPKLLIYSTSDLASGVPSRFSGSGSGTDFTLTISSLQPEDFATYYCHQYHRSPLTFGGGTKVEIKR |  |
